We go through one substance from patent US20240400677A1.

Experiment [1] concerns the target human SIRPγ on primary human T-cells (human) (UniProt Q9P1W8). The experiment can be described thus: flow cytometry, naive resting human CD4+ T cells. (In general: Flow cytometry measures light scatter and fluorescence of single cells or particles in a stream.)
The target is the same in experiment [2]. In words: flow cytometry, naive resting human CD3+ T cells.
For experiment [3] the target is unchanged. The experiment can be described thus: flow cytometry, anti-CD3/CD28-stimulated human CD4+ T cells.
Experiment [4] has the same target. In words: flow cytometry, anti-CD3/CD28-stimulated human CD3+ T cells.
Experiment [5] has the same target. The experiment can be described thus: flow cytometry, anti-CD3/CD28-stimulated human CD8+ T cells.
Experiment [6] shares this target. In words: flow cytometry, naive resting human CD8+ T cells.

As a reminder, the EC50 (read off the curve) is the concentration giving half of the maximal effect. Low readings indicate an effect from little substance, high ones a need for much substance.

Sequence of human SIRPγ on primary human T-cells (human) (Q9P1W8 29-387 limits assumed): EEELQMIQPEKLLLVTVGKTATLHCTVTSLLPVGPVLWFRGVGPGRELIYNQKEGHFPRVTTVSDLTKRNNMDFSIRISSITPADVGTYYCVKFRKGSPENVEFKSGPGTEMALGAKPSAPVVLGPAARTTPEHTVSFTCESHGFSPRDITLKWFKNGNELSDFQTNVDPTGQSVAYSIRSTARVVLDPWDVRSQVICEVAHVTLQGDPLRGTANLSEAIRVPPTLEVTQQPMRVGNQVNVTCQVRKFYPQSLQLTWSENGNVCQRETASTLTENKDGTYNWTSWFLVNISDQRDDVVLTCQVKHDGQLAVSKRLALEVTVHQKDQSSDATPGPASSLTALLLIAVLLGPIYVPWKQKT

Turning to “mouse monoclonal antibody against human SIRPγ, clone OX-119 (ThermoFisher Scientific MA5-28215)”, the EC50 (read off the curve) in experiment [1] amounted to 0.04 µg/mL; in experiment [2], 0.2 µg/mL; in experiment [3], 0.05 µg/mL; in experiment [4], 0.4 µg/mL; in experiment [5], 0.1 µg/mL; in experiment [6], 0.09 µg/mL.
